{"source": "patent US20240270851A1", "about": "(US Dept. of Health and Human Services, published 2024)", "binders": {"B1": {"name": "Shark VNAR B2 (VNAR)", "VNAR": "ARVDQTPRSVTKETGESLTINCVLRDSSYALGSTYWYRKKSGSTNEESISKGGRYVETVNSGSKSFSLRINDLTVEDSGTYRCKYTSRLRREGPLSWDGNTVYGGGTVVTVN", "notes": "Shark VNAR single-domain antibody from the semi-synthetic 18AA CDR3 library; also called B2 nanobody; B2 clone"}, "B2": {"name": "Shark VNAR F5 (VNAR)", "VNAR": "ARVDQTPRSVTKETGESLTINCVLRDTNYALGSTYWYRKKLGSTNEESISKGGRYVETVNSGSKSFSLRINDLTVEDSGTYRCKNLGHPMYIAGAICRPLPIYGGGTVVTVN", "notes": "Shark VNAR single-domain antibody"}, "B3": {"name": "F5-His-flag (VNAR)", "VNAR": "B2 VNAR", "notes": "Soluble VNAR F5 with His and flag tags, used at 5 ug/ml in the peptide-scanning ELISA; also called nanobody F5 (peptide scanning); not shown: His tag and flag tag"}, "B4": {"name": "B2-His-flag (VNAR)", "VNAR": "B1 VNAR", "notes": "Soluble VNAR B2 with His and flag tags, used at 5 ug/ml in the peptide-scanning ELISA; also called nanobody B2 (peptide scanning); not shown: His tag and flag tag"}, "B5": {"name": "F5-hFc (Fc fusion)", "chain": "B2 VNAR", "notes": "VNAR-hFc fusion used on the Octet; also called F5 VNAR-hFc fusion protein; not shown: human Fc (hFc)"}, "B6": {"name": "Shark VNAR A11 (VNAR)", "VNAR": "ARVDQTPRSVTKETGESLTINCVLRDTSYALGSTYWYRKKSGSTNEESISKGGRYVETVNSGSKSFSLRINDLTVEDSGTYRCKFKSNTEFLNPLTVSMSTIYGGGTVVTVN", "notes": "as for B2"}, "B7": {"name": "A11-His-flag (VNAR)", "VNAR": "B6 VNAR", "notes": "Soluble VNAR A11 with His and flag tags, used at 5 ug/ml in the peptide-scanning ELISA; also called nanobody A11 (peptide scanning); not shown: His tag and flag tag"}, "B8": {"name": "Shark VNAR C4 (VNAR)", "VNAR": "ARVDQTPRSVTKETGESLTINCVLRDTNYALGSTYWYRKKSGSTNEESISKGGRYVETVNSGSKSFSLRINDLTVEDSGTYRCKQSASLWIPNLLRWVPVISYGGGTVVTVN"}, "B9": {"name": "Shark VNAR A1 (VNAR)", "VNAR": "ARVDQTPRSVTKETGESLTINCVLRDTNYALGSTYWYRKKSGSTNEESISKGGRYVETVNSGSKSFSLRINDLTVEDSGTYRCKTSSKPLLVSHNVWSAWTEYGGGTVVTVN"}, "B10": {"name": "Shark VNAR D12 (VNAR)", "VNAR": "ARVDQTPRSVTKETGESLTINCVLRDTNYALGSTYWYRKKSGSTNEESISKGGRYVETVNSGSKSFSLRINDLTVEDSGTYRCKHQSSWRRQAPRVMEMQTLYGGGTVVTVN"}, "B11": {"name": "B2-hFc (Fc fusion)", "chain": "B1 VNAR", "notes": "also called B2 VNAR-hFc fusion protein; not shown: human Fc (hFc)"}, "B12": {"name": "Shark VNAR A3 (VNAR)", "VNAR": "ARVDQTPQTITKETGESLTINCVLRDSNYALGSTYWYRKKSGSTNEESISKGGRYVETVNSGSKSFSLRINDLTVEDSGTYRCKTQKAIPCNMNGYVCGVTIYGGGTVVTVN"}, "B13": {"name": "Shark VNAR A9 (VNAR)", "VNAR": "ARVDQTPQTITKETGESLTINCVLRDTNYALGSTYWYRKKLGSTNEESISKGGRYVETVNSGSKSFSLRINDLTVEDSGTYRCKNTSPWLTYSPWTVSGQTSYGGGTVVTVN"}, "B14": {"name": "Shark VNAR A2 (VNAR)", "VNAR": "ARVDQTPRSVTKETGESLTINCVLRDTSYALGSTYWYRKKLGSTNEESISKGGRYVETVNSGSKTFSLRINDLTVEDSGTYRCKVQTTWSYLSPYKIEFATVYGGGTVVTVN"}, "B15": {"name": "Shark VNAR A10 (VNAR)", "VNAR": "ARVDQTPRSVTKETGESLTINCVLRDTNYALGSTYWYRKKLGSTNEESISKGGRYVETVNSGSKSFSLRINDLTVEDSGTYRCKSTTPWNNLTSFTSERVTIYGGGTVVTVN"}, "B16": {"name": "Shark VNAR A7 (VNAR)", "VNAR": "ARVDQTPRSVTKETGESLTINCVLRDTSYALGSTYWYRKKLGSTNEESISKGGRYVETVNSGSKSFSLRINDLTVEDSGTYRCKMNQRYPCDNNSWWSLYCGTTVYGGGTVVTVN"}, "B17": {"name": "Shark VNAR A6 (VNAR)", "VNAR": "ARVDQTPQTITKETGESLTINCVLRDTSYALGSTYWYRKKSGSTNEESISKGGRYVETVNSGSKSFSLRINDLRVEDSGTYRCKYSSSWQKATEGVWEAMTEYGGGTVVTVN"}}, "key": {"mouse PD-L1-hFc": {"molecular_target": "T1, mouse PD-L1-hFc (mouse, UniProt Q9EP73 19-237, limits assumed)", "T1 construct": "also called mPD-L1 hFc-tag format; not shown: human Fc tag (hFc)", "T1 sequence (Q9EP73 19-237 limits assumed)": "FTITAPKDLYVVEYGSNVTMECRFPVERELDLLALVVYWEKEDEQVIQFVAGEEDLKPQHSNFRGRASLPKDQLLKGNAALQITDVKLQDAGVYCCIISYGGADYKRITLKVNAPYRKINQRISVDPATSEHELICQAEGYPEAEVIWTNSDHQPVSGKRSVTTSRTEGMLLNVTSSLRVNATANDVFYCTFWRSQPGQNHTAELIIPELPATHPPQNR", "assay": "monoclonal phage ELISA on coated antigen, detected with anti-M13-HRP", "experimental": "(§1) The phage ELISA was performed as previously described (Feng et al., Antib Ther 2019; 2(1):1-11). Briefly, a Nunc 96-well Maxisorp plate was coated with 5 μg/ml antigenic proteins, including mouse PD-L1-His, mouse PD-L1-hFc, human PD-L1-His, human PD-L1-hFc, and the irrelevant antigen human IgG and PBS in 50 μl PBS per well overnight at 4° C. The plate was blocked with 2% BSA in PBS for 1 hour at room temperature. Pre-blocked phage supernatant was then added into the plate. The binding activity was determined with a horseradish peroxidase (HRP)-conjugated mouse anti-M13 antibody (GE Healthcare)."}, "mouse PD-L1-His [1]": {"molecular_target": "T2, mouse PD-L1-His (mouse, UniProt Q9EP73 19-237)", "T2 construct": "Bought recombinant protein; also called mPD-L1; recombinant mouse PD-L1-His; not shown: His tag", "T2 sequence (Q9EP73 19-237 limits assumed)": "as above", "assay": "monoclonal phage ELISA on coated antigen, detected with anti-M13-HRP", "experimental": "as §1"}, "[2]": {"molecular_target": "T3, mouse PD-L1 on murine melanoma cell line B8979HC (mouse, UniProt Q9EP73 19-290)", "T3 construct": "whole, on cells; also called native PD-L1; mouse antigen", "T3 sequence (Q9EP73 19-290)": "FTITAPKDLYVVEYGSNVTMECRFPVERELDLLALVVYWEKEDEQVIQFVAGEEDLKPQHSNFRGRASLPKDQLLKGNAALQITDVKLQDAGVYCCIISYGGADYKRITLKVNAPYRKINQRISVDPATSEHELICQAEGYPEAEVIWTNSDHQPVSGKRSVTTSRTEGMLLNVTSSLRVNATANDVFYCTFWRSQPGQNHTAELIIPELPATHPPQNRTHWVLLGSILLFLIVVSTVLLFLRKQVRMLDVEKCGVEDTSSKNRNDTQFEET", "assay": "flow cytometry on murine melanoma cells B8979HC (column 'Mouse')"}, "human B7-H3": {"molecular_target": "T4, human B7-H3 (human, UniProt Q5ZPR3 29-461, limits assumed)", "T4 sequence (looked up)": "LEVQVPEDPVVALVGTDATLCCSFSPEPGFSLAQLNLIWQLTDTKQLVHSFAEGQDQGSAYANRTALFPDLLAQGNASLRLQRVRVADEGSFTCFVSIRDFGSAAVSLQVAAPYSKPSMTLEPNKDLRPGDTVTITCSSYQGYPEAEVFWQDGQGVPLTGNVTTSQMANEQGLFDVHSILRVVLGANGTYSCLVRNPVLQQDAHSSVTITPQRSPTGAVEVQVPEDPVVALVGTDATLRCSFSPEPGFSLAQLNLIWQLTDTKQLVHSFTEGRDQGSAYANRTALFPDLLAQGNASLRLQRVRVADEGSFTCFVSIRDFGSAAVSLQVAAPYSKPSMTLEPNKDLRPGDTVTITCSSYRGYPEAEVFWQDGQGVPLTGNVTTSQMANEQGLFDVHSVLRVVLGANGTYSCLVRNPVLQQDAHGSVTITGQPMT", "assay": "ELISA on coated human B7-H3"}, "[3]": {"molecular_target": "T5, human PD-L1 on MDA-MB-231 cells (human, UniProt Q9NZQ7 19-290)", "T5 construct": "whole, on cells; also called native PD-L1; human antigen", "T5 sequence (Q9NZQ7 19-290)": "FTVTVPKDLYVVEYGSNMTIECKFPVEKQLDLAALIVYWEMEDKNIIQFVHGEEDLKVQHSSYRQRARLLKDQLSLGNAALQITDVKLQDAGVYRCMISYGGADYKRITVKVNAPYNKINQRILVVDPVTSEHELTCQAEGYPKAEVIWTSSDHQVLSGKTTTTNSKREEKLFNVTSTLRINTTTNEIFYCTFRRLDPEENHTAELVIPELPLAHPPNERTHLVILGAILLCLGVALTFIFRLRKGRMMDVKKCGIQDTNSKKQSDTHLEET", "assay": "flow cytometry on MDA-MB-231 cells (column 'Human')"}, "human PD-L1-hFc": {"molecular_target": "T6, human PD-L1-hFc (human, UniProt Q9NZQ7 19-238)", "T6 construct": "also called hPD-L1 hFc-tag format; not shown: human Fc tag (hFc)", "T6 sequence (Q9NZQ7 19-238 limits assumed)": "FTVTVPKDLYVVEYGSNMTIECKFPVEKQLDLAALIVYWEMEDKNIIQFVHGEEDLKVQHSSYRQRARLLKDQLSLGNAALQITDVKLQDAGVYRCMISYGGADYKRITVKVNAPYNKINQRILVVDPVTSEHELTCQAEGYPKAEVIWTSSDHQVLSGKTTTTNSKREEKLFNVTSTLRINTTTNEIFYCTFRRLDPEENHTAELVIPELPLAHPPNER", "assay": "monoclonal phage ELISA on coated antigen, detected with anti-M13-HRP", "experimental": "as §1"}, "human PD-L1-His [4]": {"molecular_target": "T7, human PD-L1-His (human, UniProt Q9NZQ7 19-238)", "T7 construct": "also called hPD-L1-His; hPD-L1 His-tag format; not shown: His tag", "T7 sequence (Q9NZQ7 19-238 limits assumed)": "as above", "assay": "monoclonal phage ELISA on coated antigen, detected with anti-M13-HRP", "experimental": "as §1"}, "[5]": {"molecular_target": "T8, peptide #19 of the hPD-L1 ECD peptide array (human)", "T8 construct": "18-mer synthetic peptide from human PD-L1", "T8 peptide": "TTNSKREEKLFNVTSTLR", "assay": "peptide-scanning ELISA on 24 coated hPD-L1 ECD peptides, detected with anti-flag-HRP", "experimental": "To predict the binding epitope of anti-PD-L1 nanobodies, a total of 24 peptides were designed based on the hPD-L1 ECD amino acid sequence. Each synthesized peptide is 18 amino acids in length with 9 amino acids of overlap, which allows the minimum antigenic region of hPD-L1 ECD recognized by each VNAR to be narrowed down by step-by-step peptide mapping onto a 9-mer peptide epitope. The ELISA was performed as previously described. In brief, the 24 peptides were coated into individual wells of a 96-well Maxisorp plate. […] The binding activity was determined by ODA450."}, "[6]": {"molecular_target": "T9, human PD-L1 (hPD-L1) protein (human, UniProt Q9NZQ7 19-238)", "T9 construct": "also called hPD-L1 ECD", "T9 sequence (Q9NZQ7 19-238 limits assumed)": "as above", "assay": "BLI (Octet), PD-L1 protein loaded on a Ni-NTA biosensor, VNAR binding step"}, "mouse PD-L1-His [7]": {"molecular_target": "T2, mouse PD-L1-His", "assay": "monoclonal phage ELISA"}, "human PD-L1-His [8]": {"molecular_target": "T7, human PD-L1-His", "assay": "BLI (Octet), VNAR-hFc with hPD-L1-His, Ni-NTA sensor; at 100 nM; at a concentration of 100 nM (printed '100 nm')"}, "human PD-L1-His [9]": {"molecular_target": "T7, human PD-L1-His", "assay": "BLI (Octet), VNAR-hFc with hPD-L1-His, Ni-NTA sensor; at 50 nM; at a concentration of 50 nM"}}, "data": [{"binder": "B1", "values": [{"measurement": "binding result", "setting": "mouse PD-L1-hFc", "value": "binds"}, {"measurement": "binding result", "setting": "mouse PD-L1-His [1]", "value": "binds"}, {"measurement": "binding result", "setting": "[2]", "value": "binds"}, {"measurement": "binding result", "setting": "human B7-H3", "value": "no binding"}]}, {"binder": "B2", "values": [{"measurement": "binding result", "setting": "[3]", "value": "binds"}, {"measurement": "binding result", "setting": "human PD-L1-hFc", "value": "binds"}, {"measurement": "binding result", "setting": "human PD-L1-His [4]", "value": "binds"}, {"measurement": "binding result", "setting": "mouse PD-L1-hFc", "value": "binds"}, {"measurement": "binding result", "setting": "mouse PD-L1-His [1]", "value": "binds"}, {"measurement": "binding result", "setting": "[2]", "value": "binds"}]}, {"binder": "B3", "values": [{"measurement": "binding result", "setting": "[5]", "value": "binds"}]}, {"binder": "B4", "values": [{"measurement": "binding result", "setting": "[5]", "value": "binds"}]}, {"binder": "B5", "values": [{"measurement": "binding result", "setting": "[6]", "value": "binds"}]}, {"binder": "B6", "values": [{"measurement": "binding result", "setting": "mouse PD-L1-hFc", "value": "binds"}, {"measurement": "binding result", "setting": "mouse PD-L1-His [1]", "value": "binds"}]}, {"binder": "B7", "values": [{"measurement": "binding result", "setting": "[5]", "value": "no binding (tested: 5 µg/ml)"}]}, {"binder": "B8", "values": [{"measurement": "binding result", "setting": "mouse PD-L1-His [7]", "value": "binds"}]}, {"binder": "B9", "values": [{"measurement": "binding result", "setting": "mouse PD-L1-His [7]", "value": "binds"}]}, {"binder": "B10", "values": [{"measurement": "binding result", "setting": "mouse PD-L1-His [7]", "value": "binds"}]}, {"binder": "B11", "values": [{"measurement": "Kd", "setting": "human PD-L1-His [8]", "value": 1.7, "unit": "nM"}, {"measurement": "Kd", "setting": "human PD-L1-His [9]", "value": 1.4, "unit": "nM"}]}, {"binder": "B12", "values": [{"measurement": "binding result", "setting": "mouse PD-L1-His [7]", "value": "binds"}]}, {"binder": "B13", "values": [{"measurement": "binding result", "setting": "mouse PD-L1-His [7]", "value": "binds"}]}, {"binder": "B14", "values": [{"measurement": "binding result", "setting": "mouse PD-L1-His [7]", "value": "binds"}]}, {"binder": "B15", "values": [{"measurement": "binding result", "setting": "mouse PD-L1-His [7]", "value": "binds"}]}, {"binder": "B16", "values": [{"measurement": "binding result", "setting": "mouse PD-L1-His [7]", "value": "binds"}]}, {"binder": "B17", "values": [{"measurement": "binding result", "setting": "mouse PD-L1-His [7]", "value": "binds"}]}]}
